Data on twelve molecules can be found in patent publication US20070004010A1, “Engineered Enzymes and Their Use for Synthesis of Thioglycosides” (THE UNIVERSITY OF BRITISH COLUMBIA, priority 2002, published 2007).

The target in one assay is T1, Cex E127A (Cellulomonas fimi, UniProt P07986, E168A).
T1 sequence (P07986 42-484 E168A): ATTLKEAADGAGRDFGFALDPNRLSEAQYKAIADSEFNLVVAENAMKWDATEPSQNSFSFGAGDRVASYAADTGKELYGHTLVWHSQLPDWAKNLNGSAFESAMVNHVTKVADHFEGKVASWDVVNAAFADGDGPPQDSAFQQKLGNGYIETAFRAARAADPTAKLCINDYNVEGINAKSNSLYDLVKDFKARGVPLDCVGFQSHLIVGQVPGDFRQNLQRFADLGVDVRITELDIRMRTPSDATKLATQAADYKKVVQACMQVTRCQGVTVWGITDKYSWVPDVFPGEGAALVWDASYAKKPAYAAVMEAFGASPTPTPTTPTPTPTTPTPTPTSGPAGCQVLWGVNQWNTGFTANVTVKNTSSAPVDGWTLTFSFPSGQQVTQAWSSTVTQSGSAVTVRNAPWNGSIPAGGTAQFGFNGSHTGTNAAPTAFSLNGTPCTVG
Put plainly: Functional donors and acceptors for Cex E127A. In kind it is biochemical.

Assay [1] can be described thus: Saturation mutagenesis at the acid/base position (E171) of Abg: thioligase functionality. Type of assay: biochemical, Agrobacterium sp.

For the molecule `OC[C@H]1O[C@@H](O[C@H]2[C@H](O)[C@@H](O)C(O)O[C@@H]2CO)[C@H](O)[C@@H](O)[C@@H]1S` (stereo partly shown) [4′-deoxy-4′-thio-cellobiose], at Cex E127A, the acceptor function entry was “Functional acceptors”.
On to `O=[N+]([O-])c1ccc(O[C@@H]2O[C@H](CO)[C@@H](O[C@@H]3O[C@H](CO)[C@@H](O)[C@H](O)[C@H]3O)[C@H](O)[C@H]2O)c([N+](=O)[O-])c1` [DNP β-cellobioside], for which the donor function entry at Cex E127A was “Functional donors”.
Consider `O=[N+]([O-])c1ccc(O[C@@H]2O[C@H](CO)[C@@H](O[C@@H]3O[C@H](CO)[C@@H](S)[C@H](O)[C@H]3O)[C@H](O)[C@H]2O)cc1` [pNP 4′-deoxy4′-thio-β-cellobioside, pNP 4′-deoxy-4′-thio-β-cellobioside], for which, on Cex E127A, the acceptor function entry is given as “Functional acceptors” and the donor function result was “Functional donors”.

B1: Abg E171G: acid/base position (E171) mutant of the β-glucosidase from Agrobacterium sp. (Abg) (protein, UniProt P12614 1-459, looked up, variant E171G)
Beta-glucosidase: MTDPNTLAARFPGDFLFGVATASFQIEGSTKADGRKPSIWDAFCNMPGHVFGRHNGDIACDHYNRWEEDLDLIKEMGVEAYRFSLAWPRIIPDGFGPINEKGLDFYDRLVDGCKARGIKTYATLYHWDLPLTLMGDGGWASRSTAHAFQRYAKTVMARLGDRLDAVATFNGPWCAVWLSHLYGVHAPGERNMEAALAAMHHINLAHGFGVEASRHVAPKVPVGLVLNAHSAIPASDGEADLKAAERAFQFHNGAFFDPVFKGEYPAEMMEALGDRMPVVEAEDLGIISQKLDWWGLNYYTPMRVADDATPGVEFPATMPAPAVSDVKTDIGWEVYAPALHTLVETLYERYDLPECYITENGACYNMGVENGQVNDQPRLDYYAEHLGIVADLIRDGYPMRGYFAWSLMDNFEWAEGYRMRFGLVHVDYQTQVRTVKNSGKWYSALASGFPKGNHGVAKG
As for B1, the functionality as thioligase entry in assay [1] was “functionality as thioligases”.

B2: E171N: acid/base position (E171) mutant of Abg (protein, UniProt P12614 1-459, looked up, variant E171N)
Beta-glucosidase: MTDPNTLAARFPGDFLFGVATASFQIEGSTKADGRKPSIWDAFCNMPGHVFGRHNGDIACDHYNRWEEDLDLIKEMGVEAYRFSLAWPRIIPDGFGPINEKGLDFYDRLVDGCKARGIKTYATLYHWDLPLTLMGDGGWASRSTAHAFQRYAKTVMARLGDRLDAVATFNNPWCAVWLSHLYGVHAPGERNMEAALAAMHHINLAHGFGVEASRHVAPKVPVGLVLNAHSAIPASDGEADLKAAERAFQFHNGAFFDPVFKGEYPAEMMEALGDRMPVVEAEDLGIISQKLDWWGLNYYTPMRVADDATPGVEFPATMPAPAVSDVKTDIGWEVYAPALHTLVETLYERYDLPECYITENGACYNMGVENGQVNDQPRLDYYAEHLGIVADLIRDGYPMRGYFAWSLMDNFEWAEGYRMRFGLVHVDYQTQVRTVKNSGKWYSALASGFPKGNHGVAKG
For B2, the functionality as thioligase entry in assay [1] is reported as “functionality as thioligases”.

B3: E171L: acid/base position (E171) mutant of Abg (protein, UniProt P12614 1-459, looked up, variant E171L)
Beta-glucosidase: MTDPNTLAARFPGDFLFGVATASFQIEGSTKADGRKPSIWDAFCNMPGHVFGRHNGDIACDHYNRWEEDLDLIKEMGVEAYRFSLAWPRIIPDGFGPINEKGLDFYDRLVDGCKARGIKTYATLYHWDLPLTLMGDGGWASRSTAHAFQRYAKTVMARLGDRLDAVATFNLPWCAVWLSHLYGVHAPGERNMEAALAAMHHINLAHGFGVEASRHVAPKVPVGLVLNAHSAIPASDGEADLKAAERAFQFHNGAFFDPVFKGEYPAEMMEALGDRMPVVEAEDLGIISQKLDWWGLNYYTPMRVADDATPGVEFPATMPAPAVSDVKTDIGWEVYAPALHTLVETLYERYDLPECYITENGACYNMGVENGQVNDQPRLDYYAEHLGIVADLIRDGYPMRGYFAWSLMDNFEWAEGYRMRFGLVHVDYQTQVRTVKNSGKWYSALASGFPKGNHGVAKG
In the case of B3, in assay [1], the functionality as thioligase result is “functionality as thioligases”.

B4: E171I: acid/base position (E171) mutant of Abg (protein, UniProt P12614 1-459, looked up, variant E171I)
Beta-glucosidase: MTDPNTLAARFPGDFLFGVATASFQIEGSTKADGRKPSIWDAFCNMPGHVFGRHNGDIACDHYNRWEEDLDLIKEMGVEAYRFSLAWPRIIPDGFGPINEKGLDFYDRLVDGCKARGIKTYATLYHWDLPLTLMGDGGWASRSTAHAFQRYAKTVMARLGDRLDAVATFNIPWCAVWLSHLYGVHAPGERNMEAALAAMHHINLAHGFGVEASRHVAPKVPVGLVLNAHSAIPASDGEADLKAAERAFQFHNGAFFDPVFKGEYPAEMMEALGDRMPVVEAEDLGIISQKLDWWGLNYYTPMRVADDATPGVEFPATMPAPAVSDVKTDIGWEVYAPALHTLVETLYERYDLPECYITENGACYNMGVENGQVNDQPRLDYYAEHLGIVADLIRDGYPMRGYFAWSLMDNFEWAEGYRMRFGLVHVDYQTQVRTVKNSGKWYSALASGFPKGNHGVAKG
As to B4, in assay [1], the functionality as thioligase entry is listed as “functionality as thioligases”.

B5: E171T: acid/base position (E171) mutant of Abg (protein, UniProt P12614 1-459, looked up, variant E171T)
Beta-glucosidase: MTDPNTLAARFPGDFLFGVATASFQIEGSTKADGRKPSIWDAFCNMPGHVFGRHNGDIACDHYNRWEEDLDLIKEMGVEAYRFSLAWPRIIPDGFGPINEKGLDFYDRLVDGCKARGIKTYATLYHWDLPLTLMGDGGWASRSTAHAFQRYAKTVMARLGDRLDAVATFNTPWCAVWLSHLYGVHAPGERNMEAALAAMHHINLAHGFGVEASRHVAPKVPVGLVLNAHSAIPASDGEADLKAAERAFQFHNGAFFDPVFKGEYPAEMMEALGDRMPVVEAEDLGIISQKLDWWGLNYYTPMRVADDATPGVEFPATMPAPAVSDVKTDIGWEVYAPALHTLVETLYERYDLPECYITENGACYNMGVENGQVNDQPRLDYYAEHLGIVADLIRDGYPMRGYFAWSLMDNFEWAEGYRMRFGLVHVDYQTQVRTVKNSGKWYSALASGFPKGNHGVAKG
B5: in assay [1], the functionality as thioligase result is “functionality as thioligases”.

B6: E171M: acid/base position (E171) mutant of Abg (protein, UniProt P12614 1-459, looked up, variant E171M)
Beta-glucosidase: MTDPNTLAARFPGDFLFGVATASFQIEGSTKADGRKPSIWDAFCNMPGHVFGRHNGDIACDHYNRWEEDLDLIKEMGVEAYRFSLAWPRIIPDGFGPINEKGLDFYDRLVDGCKARGIKTYATLYHWDLPLTLMGDGGWASRSTAHAFQRYAKTVMARLGDRLDAVATFNMPWCAVWLSHLYGVHAPGERNMEAALAAMHHINLAHGFGVEASRHVAPKVPVGLVLNAHSAIPASDGEADLKAAERAFQFHNGAFFDPVFKGEYPAEMMEALGDRMPVVEAEDLGIISQKLDWWGLNYYTPMRVADDATPGVEFPATMPAPAVSDVKTDIGWEVYAPALHTLVETLYERYDLPECYITENGACYNMGVENGQVNDQPRLDYYAEHLGIVADLIRDGYPMRGYFAWSLMDNFEWAEGYRMRFGLVHVDYQTQVRTVKNSGKWYSALASGFPKGNHGVAKG
As to B6, in assay [1], the functionality as thioligase entry is “functionality as thioligases”.

B7: E171S: acid/base position (E171) mutant of Abg (protein, UniProt P12614 1-459, looked up, variant E171S)
Beta-glucosidase: MTDPNTLAARFPGDFLFGVATASFQIEGSTKADGRKPSIWDAFCNMPGHVFGRHNGDIACDHYNRWEEDLDLIKEMGVEAYRFSLAWPRIIPDGFGPINEKGLDFYDRLVDGCKARGIKTYATLYHWDLPLTLMGDGGWASRSTAHAFQRYAKTVMARLGDRLDAVATFNSPWCAVWLSHLYGVHAPGERNMEAALAAMHHINLAHGFGVEASRHVAPKVPVGLVLNAHSAIPASDGEADLKAAERAFQFHNGAFFDPVFKGEYPAEMMEALGDRMPVVEAEDLGIISQKLDWWGLNYYTPMRVADDATPGVEFPATMPAPAVSDVKTDIGWEVYAPALHTLVETLYERYDLPECYITENGACYNMGVENGQVNDQPRLDYYAEHLGIVADLIRDGYPMRGYFAWSLMDNFEWAEGYRMRFGLVHVDYQTQVRTVKNSGKWYSALASGFPKGNHGVAKG
Turning to B7, the functionality as thioligase result in assay [1] is listed as “functionality as thioligases”.

B8: Abg E171Q: acid/base position (E171) mutant of the β-glucosidase from Agrobacterium sp. (Abg) (protein, UniProt P12614 1-459, looked up, variant E171Q)
Beta-glucosidase: MTDPNTLAARFPGDFLFGVATASFQIEGSTKADGRKPSIWDAFCNMPGHVFGRHNGDIACDHYNRWEEDLDLIKEMGVEAYRFSLAWPRIIPDGFGPINEKGLDFYDRLVDGCKARGIKTYATLYHWDLPLTLMGDGGWASRSTAHAFQRYAKTVMARLGDRLDAVATFNQPWCAVWLSHLYGVHAPGERNMEAALAAMHHINLAHGFGVEASRHVAPKVPVGLVLNAHSAIPASDGEADLKAAERAFQFHNGAFFDPVFKGEYPAEMMEALGDRMPVVEAEDLGIISQKLDWWGLNYYTPMRVADDATPGVEFPATMPAPAVSDVKTDIGWEVYAPALHTLVETLYERYDLPECYITENGACYNMGVENGQVNDQPRLDYYAEHLGIVADLIRDGYPMRGYFAWSLMDNFEWAEGYRMRFGLVHVDYQTQVRTVKNSGKWYSALASGFPKGNHGVAKG
Regarding B8, in assay [1], the functionality as thioligase result is given as “functionality as thioligases”.

B9: E171F: acid/base position (E171) mutant of Abg (protein, UniProt P12614 1-459, looked up, variant E171F)
Beta-glucosidase: MTDPNTLAARFPGDFLFGVATASFQIEGSTKADGRKPSIWDAFCNMPGHVFGRHNGDIACDHYNRWEEDLDLIKEMGVEAYRFSLAWPRIIPDGFGPINEKGLDFYDRLVDGCKARGIKTYATLYHWDLPLTLMGDGGWASRSTAHAFQRYAKTVMARLGDRLDAVATFNFPWCAVWLSHLYGVHAPGERNMEAALAAMHHINLAHGFGVEASRHVAPKVPVGLVLNAHSAIPASDGEADLKAAERAFQFHNGAFFDPVFKGEYPAEMMEALGDRMPVVEAEDLGIISQKLDWWGLNYYTPMRVADDATPGVEFPATMPAPAVSDVKTDIGWEVYAPALHTLVETLYERYDLPECYITENGACYNMGVENGQVNDQPRLDYYAEHLGIVADLIRDGYPMRGYFAWSLMDNFEWAEGYRMRFGLVHVDYQTQVRTVKNSGKWYSALASGFPKGNHGVAKG
With B9, in assay [1], the functionality as thioligase result is “functionality as thioligases”.
